This test concerns the target HLA-A*02:01 (Homo sapiens, UniProt P04439, D140Y/D185E/D98H/E176V/E277Q/G131W/G231S/I119V/I121R/I166T/I218V/L300P/L318F/N151K/N90K/P208A/P217A/Q86G/Q94H/R138H/R169H/T345S). As to the kind of experiment: MHC binding assay: UV-ligand exchange with beta2m ELISA (peptide exchange yield). Particulars: binding to HLA-A*02:01. The method, boiled down: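 Peptide-MHC complexes formed by UV-ligand exchange, a UV-cleavable peptide being replaced by the candidate peptide. Exchange products diluted 100-fold, captured on streptavidin-coated plates for 1h at 37° C, then detected with 2 ug/ml HRP anti-β2m (1h, 37° C) and TMB, absorbance 450 nm; value is exchange yield.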
(In an ELISA, binding on a coated surface is turned into a signal by an enzyme label.)

Take “225 (SLLKVLPAL; listed as Homo sapiens) [compound 225]”: the “Peptide exchange (MHC class I binding score, peptide exchange yield)” value (from here on “Peptide exchange”) is reported as ““+++” (≥50 = +++)”. In the case of “226 (MLYVVPIYL; listed as Homo sapiens) [compound 226]” it was ““++” (≥20% = ++)”; in that of “227 (ALMNTLLYL; listed as Homo sapiens) [compound 227]”, ““++” (≥20% = ++)”. For the substance “228 (AMQEYIAVV; listed as Homo sapiens) [compound 228]”, the “Peptide exchange” value is ““++” (≥20% = ++)”. The value for “229 (RLPGPLGTV; listed as Homo sapiens) [compound 229]” was ““++” (≥20% = ++)”; that for “230 (ILVDWLVEV; listed as Homo sapiens) [compound 230]” was ““+” (≥10% = +)”; that for “231 (FLSPQQPPLLL; listed as Homo sapiens) [compound 231]” was ““++” (≥20% = ++)”. The value for “232 (ALLEAQDVELYL; listed as Homo sapiens) [compound 232]” was ““++” (≥20% = ++)”. For the substance “233 (VLSETLYEL; listed as Homo sapiens) [compound 233]”, the “Peptide exchange” value is listed as ““++” (≥20% = ++)”. Turning to “234 (ALMEDTGRQML; listed as Homo sapiens) [compound 234]”, the “Peptide exchange” value was ““++” (≥20% = ++)”. In the case of “235 (YLNDLHEVLL; listed as Homo sapiens) [compound 235]” it was ““++++” (≥75% = ++++)”; in that of “236 (GLLEAKVSL; listed as Homo sapiens) [compound 236]”, ““+++” (≥50 = +++)”. Regarding “237 (ALLEASGTLLL; listed as Homo sapiens) [compound 237]”, the “Peptide exchange” value is listed as ““++++” (≥75% = ++++)”. As to “238 (YLISFQTHI; listed as Homo sapiens) [compound 238]”, the “Peptide exchange” value is ““+++” (≥50 = +++)”. The value for “239 (AAFAGKLLSV; listed as Homo sapiens) [compound 239]” was ““+++” (≥50 = +++)”; that for “240 (ILLEQAFYL; listed as Homo sapiens) [compound 240]” was ““+++” (≥50 = +++)”.

Regarding “241 (SLVEVNPAYSV; listed as Homo sapiens) [compound 241]”, the “Peptide exchange” value is on record as ““+++” (≥50 = +++)”.

As for “242 (AIAYILQGV; listed as Homo sapiens) [compound 242]”, the “Peptide exchange” value is on record as ““++” (≥20% = ++)”. The value for “243 (LLLNELPSV; listed as Homo sapiens) [compound 243]” was ““+++” (≥50 = +++)”; that for “244 (SLFGGTEITI; listed as Homo sapiens) [compound 244]” was ““+++” (≥50 = +++)”; that for “245 (SMIDDLLGV; listed as Homo sapiens) [compound 245]” was ““+++” (≥50 = +++)”. As to “246 (LLWEVVSQL; listed as Homo sapiens) [compound 246]”, the “Peptide exchange” value is ““+++” (≥50 = +++)”. Regarding “247 (VLLPNDLLEKV; listed as Homo sapiens) [compound 247]”, the “Peptide exchange” value is reported as ““+++” (≥50 = +++)”. In the case of “248 (FLFPNQYVDV; listed as Homo sapiens) [compound 248]” it was ““+++” (≥50 = +++)”. The value for “249 (LLDGFLVNV; listed as Homo sapiens) [compound 249]” was ““+++” (≥50 = +++)”. For the substance “250 (ALSEEGLLVYL; listed as Homo sapiens) [compound 250]”, the “Peptide exchange” value is given as ““+++” (≥50 = +++)”. Regarding “251 (ALYTGFSILV; listed as Homo sapiens) [compound 251]”, the “Peptide exchange” value is on record as ““++” (≥20% = ++)”. As for “252 (LLIGTDVSL; listed as Homo sapiens) [compound 252]”, the “Peptide exchange” value is recorded as ““+++” (≥50 = +++)”. With “253 (GLDAATATV; listed as Homo sapiens) [compound 253]”, the “Peptide exchange” value is ““++” (≥20% = ++)”. For “254 (TLLAFIMEL; listed as Homo sapiens) [compound 254]”, the “Peptide exchange” value was ““+++” (≥50 = +++)”.

In the case of “255 (VLASYNLTV; listed as Homo sapiens) [compound 255]”, the “Peptide exchange” value is ““+++” (≥50 = +++)”. In the case of “256 (FLPPEHTIVYI; listed as Homo sapiens) [compound 256]” it was ““+++” (≥50 = +++)”. In the case of “257 (SIFSAFLSV; listed as Homo sapiens) [compound 257]” it was ““+++” (≥50 = +++)”.

For the substance “258 (ELAERVPAI; listed as Homo sapiens) [compound 258]”, the “Peptide exchange” value was ““++” (≥20% = ++)”. In the case of “261 (YVLEFLEEI; listed as Homo sapiens) [compound 261]” it was ““++” (≥20% = ++)”; in that of “262 (LLWGDLIWL; listed as Homo sapiens) [compound 262]”, ““+++” (≥50 = +++)”; in that of “263 (LLVSNLDFGV; listed as Homo sapiens) [compound 263]”, ““+++” (≥50 = +++)”. With “264 (SLQEQLHSV; listed as Homo sapiens) [compound 264]”, the “Peptide exchange” value is listed as ““+++” (≥50 = +++)”. Regarding “265 (LLFGGTKTV; listed as Homo sapiens) [compound 265]”, the “Peptide exchange” value is reported as ““++” (≥20% = ++)”. The value for “266 (KITDTLIHL; listed as Homo sapiens) [compound 266]” was ““+++” (≥50 = +++)”; that for “267 (ALQDFLLSV; listed as Homo sapiens) [compound 267]” was ““+++” (≥50 = +++)”; that for “269 (RVLEVGALQAV; listed as Homo sapiens) [compound 269]” was ““++” (≥20% = ++)”. The value for “270 (LLLDEEGTFSL; listed as Homo sapiens) [compound 270]” was ““++” (≥20% = ++)”; that for “271 (LVYPLELYPA; listed as Homo sapiens) [compound 271]” was ““+++” (≥50 = +++)”. The value for “272 (ALGNTVPAV; listed as Homo sapiens) [compound 272]” was ““+++” (≥50 = +++)”. Take “273 (NLFQSVREV; listed as Homo sapiens) [compound 273]”: the “Peptide exchange” value was ““++” (≥20% = ++)”. In the case of “274 (SLLFSLFEA; listed as Homo sapiens) [compound 274]” it was ““++” (≥20% = ++)”; in that of “275 (YLVYILNEL; listed as Homo sapiens) [compound 275]”, ““++” (≥20% = ++)”. The value for “276 (ALFTFSPLTV; listed as Homo sapiens) [compound 276]” was ““+++” (≥50 = +++)”. As to “277 (LLPPLESLATV; listed as Homo sapiens) [compound 277]”, the “Peptide exchange” value is ““++” (≥20% = ++)”.

Regarding “278 (QLLDVVLTI; listed as Homo sapiens) [compound 278]”, the “Peptide exchange” value is recorded as ““++” (≥20% = ++)”. The value for “279 (ALWGGTQPLL; listed as Homo sapiens) [compound 279]” was ““++” (≥20% = ++)”. The value for “280 (VLPDPEVLEAV; listed as Homo sapiens) [compound 280]” was ““+++” (≥50 = +++)”. The value for “281 (ILRESTEEL; listed as Homo sapiens) [compound 281]” was ““+++” (≥50 = +++)”; that for “282 (LLADVVPTT; listed as Homo sapiens) [compound 282]” was ““+++” (≥50 = +++)”; that for “284 (ILLSQTTGV; listed as Homo sapiens) [compound 284]” was ““+++” (≥50 = +++)”. Consider “285 (QLLHVGVTV; listed as Homo sapiens) [compound 285]”, for which the “Peptide exchange” value was ““+++” (≥50 = +++)”.

For the substance “286 (YLFPGIPEL; listed as Homo sapiens) [compound 286]”, the “Peptide exchange” value is reported as ““+++” (≥50 = +++)”. Take “287 (FLNEFFLNV; listed as Homo sapiens) [compound 287]”: the “Peptide exchange” value is ““+++” (≥50 = +++)”. In the case of “288 (NLINEINGV; listed as Homo sapiens) [compound 288]” it was ““+++” (≥50 = +++)”. In the case of “289 (VLLEIEDLQV; listed as Homo sapiens) [compound 289]” it was ““++++” (≥75% = ++++)”.

The values above are taken from patent publication US10464978B2, “Peptides and combination of peptides for use in immunotherapy against ovarian cancer and other cancers” (immatics biotechnologies GmbH, priority 2015, dated 2019).
